Measurements from patent US20240352087A1.

T1: HLA-A*01:01 (human), P04439
T1 chain: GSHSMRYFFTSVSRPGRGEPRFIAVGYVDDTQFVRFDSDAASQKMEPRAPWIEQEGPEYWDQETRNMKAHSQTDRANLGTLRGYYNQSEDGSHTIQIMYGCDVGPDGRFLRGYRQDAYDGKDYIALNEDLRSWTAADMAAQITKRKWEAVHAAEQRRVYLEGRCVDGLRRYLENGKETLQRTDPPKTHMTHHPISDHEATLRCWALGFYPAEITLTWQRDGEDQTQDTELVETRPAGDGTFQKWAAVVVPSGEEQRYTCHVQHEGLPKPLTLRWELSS

T2: HLA-A*02:01 (human), P04439
T2 chain: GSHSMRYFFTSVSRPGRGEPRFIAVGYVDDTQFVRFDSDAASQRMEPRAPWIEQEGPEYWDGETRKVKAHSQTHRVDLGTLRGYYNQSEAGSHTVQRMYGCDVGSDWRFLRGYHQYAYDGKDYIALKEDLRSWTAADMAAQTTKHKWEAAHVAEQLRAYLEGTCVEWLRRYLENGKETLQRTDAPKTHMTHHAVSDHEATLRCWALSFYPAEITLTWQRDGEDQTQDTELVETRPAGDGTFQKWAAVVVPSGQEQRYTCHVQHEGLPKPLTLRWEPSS


What was measured:
[1] = target: T1, HLA-A*01:01 (human), P04439; assay: HLA-binding assay; details: chains peptide; modification not given
[2] = target: T2, HLA-A*02:01 (human), P04439; assay: HLA-binding assay; details: chains peptide; modification not given

| Binder | IC50 [1] [nM] | IC50 [2] [nM] |
| --- | --- | --- |
| QVDYYGLYY [HPV E2 151-159 peptide …] | 18 | – |
| VLLLWITAA [HPV E5 46-54 peptide …] | – | 11 |
| KSAIVTLTY [HPV E2 329-337 peptide …] | 11 | – |
